The values that follow come from patent US7312060.

Data set [1] deals with N- and C-terminally tagged APC protein (cell-free expressed, Example 45) (UniProt P25054).
Data set [2] concerns N- and C-terminally tagged MDM (cell-free expressed).
Data set [3] concerns N- and C-terminally tagged PKA (cell-free expressed).

UniProt P25054, sequence (P25054 1098-1696): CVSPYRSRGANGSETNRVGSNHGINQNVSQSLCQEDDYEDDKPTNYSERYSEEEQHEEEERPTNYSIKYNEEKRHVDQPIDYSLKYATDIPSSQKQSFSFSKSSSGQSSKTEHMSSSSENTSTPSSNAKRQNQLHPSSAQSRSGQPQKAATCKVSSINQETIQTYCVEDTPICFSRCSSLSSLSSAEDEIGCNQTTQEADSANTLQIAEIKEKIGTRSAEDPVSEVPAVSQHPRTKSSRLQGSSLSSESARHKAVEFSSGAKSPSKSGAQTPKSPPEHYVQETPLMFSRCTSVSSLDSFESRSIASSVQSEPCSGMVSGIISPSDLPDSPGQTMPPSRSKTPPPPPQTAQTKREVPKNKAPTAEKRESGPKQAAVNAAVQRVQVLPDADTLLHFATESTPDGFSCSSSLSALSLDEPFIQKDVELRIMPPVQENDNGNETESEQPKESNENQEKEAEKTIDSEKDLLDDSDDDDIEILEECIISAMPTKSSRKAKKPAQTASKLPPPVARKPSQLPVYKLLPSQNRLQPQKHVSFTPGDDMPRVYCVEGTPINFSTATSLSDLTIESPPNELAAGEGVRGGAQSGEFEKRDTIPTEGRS

On to Caspase-3, for which the “protease substrate degradation monitored by ELISA” value in data set [1] is reported as “degraded ... in a time-dependent manner”; in data set [2], “degraded ... in a time-dependent manner”; in data set [3], “unaffected”.
